Legend:
[1] = target: TacAT^WT complex (one H6-TacT with one TacA) (Salmonella enterica subsp. enterica serovar Typhimurium LT2) (UniProt Q8ZL98); assay: SEC; Superose 12 10/300 GL; 50 mM HEPES pH 7.0 at 4°C, 150 mM NaCl, 20% glycerol; co-purified TacAT complexes applied; molecular weight from a standard curve of gel filtration standards
[2] = target: H6-TacT^WT toxin (Gcn5-related N-acetyltransferase TacT) (Salmonella enterica subsp. enterica serovar Typhimurium LT2) (UniProt Q8ZL98); assay: SEC

Sequence of UniProt Q8ZL98 (Q8ZL98 whole entry): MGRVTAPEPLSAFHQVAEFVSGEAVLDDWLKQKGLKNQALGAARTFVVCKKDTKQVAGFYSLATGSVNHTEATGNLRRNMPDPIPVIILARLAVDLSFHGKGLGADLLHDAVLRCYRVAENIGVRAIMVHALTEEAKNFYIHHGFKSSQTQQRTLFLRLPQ

TacAT^WT complex (one H6-TacT with one TacA) (from UniProt Q8ZL98 1-161)
stoichiometry N [1]: 2

TacA^WT antitoxin (tagless native TacA) (natural protein)
stoichiometry N [2]: 1

From PMC5449658
